Assay results taken from PMC3025051 (Cell cycle (Georgetown, Tex.), 2011).

Molecular target: T1, MAL-Myc-tagged Cdc18 wild type (bacterial recombinant) (S. pombe, UniProt P41411 1-577)
T1 sequence (looked up): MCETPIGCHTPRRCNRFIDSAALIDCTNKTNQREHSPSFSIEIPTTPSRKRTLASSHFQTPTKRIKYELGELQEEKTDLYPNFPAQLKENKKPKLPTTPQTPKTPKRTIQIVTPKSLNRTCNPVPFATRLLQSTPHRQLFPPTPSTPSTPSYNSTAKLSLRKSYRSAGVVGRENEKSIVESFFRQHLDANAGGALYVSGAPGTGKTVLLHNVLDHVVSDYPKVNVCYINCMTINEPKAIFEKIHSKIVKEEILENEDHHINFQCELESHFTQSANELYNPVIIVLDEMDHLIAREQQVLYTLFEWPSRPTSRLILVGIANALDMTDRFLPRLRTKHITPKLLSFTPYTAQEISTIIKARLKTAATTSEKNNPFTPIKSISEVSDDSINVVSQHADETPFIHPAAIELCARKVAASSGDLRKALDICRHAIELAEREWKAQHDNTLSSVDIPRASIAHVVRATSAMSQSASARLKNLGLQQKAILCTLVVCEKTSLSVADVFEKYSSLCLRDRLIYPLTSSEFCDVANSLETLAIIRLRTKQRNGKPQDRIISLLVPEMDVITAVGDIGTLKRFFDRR
Test: pull-down

- binding result: binds
B1: 6his-FLAG-Swi6 wild type (bacterial recombinant) (natural protein, S. pombe, UniProt P40381 1-328, looked up)
chain: MKKGGVRSYRRSSTSKRSVIDDDSEPELPSMTKEAIASHKADSGSSDNEVESDHESKSSSKKLKENAKEEEGGEEEEEDEYVVEKVLKHRMARKGGGYEYLLKWEGYDDPSDNTWSSEADCSGCKQLIEAYWNEHGGRPEPSKRKRTARPKKPEAKEPSPKSRKTDEDKHDKDSNEKIEDVNEKTIKFADKSQEEFNENGPPSGQPNGHIESDNESKSPSQKESNESEDIQIAETPSNVTPKKKPSPEVPKLPDNRELTVKQVENYDSWEDLVSSIDTIERKDDGTLEIYLTWKNGAISHHPSTITNKKCPQKMLQFYESHLTFRENE
